Experimental findings from patent publication CN111303279A (INST PATHOGEN BIOLOGY CAMS, dated 2020) are described below.

Test [1] concerns the target SARS-CoV-2病毒的包膜刺突糖蛋白(即S蛋白) (SARS-CoV-2, UniProt P0DTC2 14-1273). Nature of the test: cell-based or functional assay.
The target in test [2] is T1, SARS-CoV-2刺突蛋白RBD区重组蛋白 (SARS-CoV-2, UniProt P0DTC2 319-541). Nature of the test: SPR, BIAcore T-200, RBD amine-coupled on CM5 chip, VHH in flow. (In general: SPR reads the build-up and loss of mass on a sensor chip optically.)
Test [3] addresses T1, SARS-CoV-2刺突蛋白RBD区重组蛋白. Nature of the test: SPR, BIAcore T-200; range told of the group, this end tied to 4D8 by table 1.
Test [4] has as its target T1, SARS-CoV-2刺突蛋白RBD区重组蛋白. Nature of the test: SPR, BIAcore T-200; range told of the group, this end tied to 5F8 by table 1.

B1: 单域抗体4D8 (VHH)
VHH: QVQLVESGGGLVQPGGSLRLSCAASGNIDSTRYHGWFRQAPGKGLEAVAAIKGVWPEDYYADSVKGRFTISRDNSKNTLYLQMNSLRAEDTAVYYCAADQYEWWVPGEVGPYLYWGQGTQVTVSS
Take B1: the “抑制SARS-CoV-2假型病毒感染 IC50 (luciferase, Calu-3细胞)” value (shortened to “抑制SARS-CoV-2假型病毒感染 IC50”) in test [1] is 0.247 µg/mL. For the same molecule, in the test with SARS-CoV-2刺突蛋白RBD区重组蛋白 [2], the affinity, expressed as Kd, was 34 nM; the dissociation rate constant (koff) worked out at 0.00613 s⁻¹; the kon was 180000 M⁻¹ s⁻¹. In addition, the dissociation constant Kd with SARS-CoV-2刺突蛋白RBD区重组蛋白 [3] was 33.9 nM.

B2: 单域抗体2F2 (VHH)
VHH: QVQLVESGGGLVQPGGSLRLSCAASGLAQSKWAYGWFRQAPGKGLEAVAAIDVATGPWYYADSVKGRFTISRDNSKNTLYLQMNSLRAEDTAVYYCAAHHIPTKHPAFPDFRDYWGQGTQVTVSS
With B2, in test [1], the “抑制SARS-CoV-2假型病毒感染 IC50” value is 0.0235 µg/mL. In the test with SARS-CoV-2刺突蛋白RBD区重组蛋白 [2], this molecule registered a Kd of 0.846 nM, a dissociation rate constant (koff) of 0.000313 s⁻¹ and an association rate constant (kon) of 370000 M⁻¹ s⁻¹.

B3: 单域抗体5F8 (VHH)
VHH: QVQLVESGGGLVQPGGSLRLSCAASGRQAVVFGWFRQAPGKGLEAVAAIHVPAKNRYYADSVKGRFTISRDNSKNTLYLQMNSLRAEDTAVYYCAAHYEFNDFVWQGYSSDYWGQGTQVTVSS
Turning to B3, the “抑制SARS-CoV-2假型病毒感染 IC50” value in test [1] was 0.00338 µg/mL. In the test with SARS-CoV-2刺突蛋白RBD区重组蛋白 [2], this molecule came in with a Kd of 0.716 nM, a koff of 0.000211 s⁻¹ and a kon of 295000 M⁻¹ s⁻¹. The same molecule had an equilibrium dissociation constant (Kd) with SARS-CoV-2刺突蛋白RBD区重组蛋白 [4] of 0.71 nM.

B4: 单域抗体3F11 (VHH)
VHH: QVQLVESGGGLVQPGGSLRLSCAASGGNAAERMAGWFRQAPGKGLEAVAAIYYAKFGPYYADSVKGRFTISRDNSKNTLYLQMNSLRAEDTAVYYCAAEAFVQSPYSGSHTTKYWGQGTQVTVSS
Take B4: the “抑制SARS-CoV-2假型病毒感染 IC50” value in test [1] amounted to 0.0038 µg/mL. Also, in the test with SARS-CoV-2刺突蛋白RBD区重组蛋白 [2], the Kd was 3.15 nM, the koff is 0.00675 s⁻¹ and the kon amounted to 2.14e+06 M⁻¹ s⁻¹.

B5: 单域抗体1E2 (VHH)
VHH: QVQLVESGGGLVQPGGSLRLSCAASGADAFVIIGGWFRQAPGKGLEAVAAIAWTDQHEYYADSVKGRFTISRDNSKNTLYLQMNSLRAEDTAVYYCAAQDSAYIKSKGSRAYEYWGQGTQVTVSS
Take B5: in test [1], the “抑制SARS-CoV-2假型病毒感染 IC50” value was found to be 0.31 µg/mL. In the test with SARS-CoV-2刺突蛋白RBD区重组蛋白 [2], this molecule had a Kd of 21.1 nM, a koff of 0.00518 s⁻¹ and a kon of 245000 M⁻¹ s⁻¹.

What is called Kd is the free concentration of one partner at which half of the binding sites on the other are occupied at equilibrium, for simple one-to-one binding. Lower therefore signals tighter binding. For orientation: koff means the rate constant with which the complex falls apart. Broadly, the kon is the second-order rate constant of association. A low value points to slow association.
